These are literature values, as cited in paper PMC12528386.

This data set deals with BamA (Escherichia coli) (UniProt P0A940).

On to RcsF (from UniProt P69411), for which the Kd was 400 nM.

For orientation: Kd means the free concentration of one partner at which half of the binding sites on the other are occupied at equilibrium, for simple one-to-one binding.
